The record followed here is publication PMC12746902, “Pathogenic Gαo Mutants Drive Dominant GPCR Coupling in GNAO1 Encephalopathies” (The FASEB Journal, 2025).

The target of test [1] is M2 muscarinic acetylcholine receptor with C-terminal split-YFP fragment YN (M2R-YN) (UniProt P08172).
The target is the same in test [2]. This is another data set of the same source.
In test [3] the target is T1, M2 muscarinic acetylcholine receptor with C-terminal split-YFP fragment YN (M2R-YN) (UniProt P08172 1-466).
T1 sequence (looked up): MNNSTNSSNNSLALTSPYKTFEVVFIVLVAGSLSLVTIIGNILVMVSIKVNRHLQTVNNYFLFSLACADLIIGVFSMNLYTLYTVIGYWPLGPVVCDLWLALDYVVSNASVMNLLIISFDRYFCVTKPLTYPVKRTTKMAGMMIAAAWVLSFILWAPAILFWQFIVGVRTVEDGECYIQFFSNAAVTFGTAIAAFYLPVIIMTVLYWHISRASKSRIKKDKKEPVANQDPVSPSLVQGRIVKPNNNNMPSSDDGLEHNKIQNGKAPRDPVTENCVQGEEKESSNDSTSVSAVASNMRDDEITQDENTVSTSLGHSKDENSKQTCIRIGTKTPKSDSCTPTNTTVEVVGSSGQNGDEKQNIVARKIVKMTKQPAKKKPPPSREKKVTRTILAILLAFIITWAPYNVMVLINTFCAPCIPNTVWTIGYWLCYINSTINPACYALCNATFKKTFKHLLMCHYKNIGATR
The test is described as follows: cell-based or functional assay.

With “Gαo ins4A (four-alanine insertion in the C-terminal α5-helix) with internal split-YFP fragment YC at Gly92 (from UniProt P09471 1-354) (natural protein)”, the reduction of ACh-mediated M2R phosphorylation (pT307/pS309 relative to total M2R) in immunoprecipitated split-YFP complexes, 100 μM ACh for 5 min in test [1] is > 90%. Further, in test [2], the reduction of ACh-mediated phosphorylation (pT307/pS309 relative to total receptor) of immunoprecipitated GFP-M2R with co-expressed UNTAGGED Gαo ins4A, 100 μM ACh for 5 min was 95%.

B1: Gαo T241_N242insPQ with internal split-YFP fragment YC at Gly92 (natural protein, UniProt P09471 1-354, looked up)
chain: MGCTLSAEERAALERSKAIEKNLKEDGISAAKDVKLLLLGAGESGKSTIVKQMKIIHEDGFSGEDVKQYKPVVYSNTIQSLAAIVRAMDTLGIEYGDKERKADAKMVCDVVSRMEDTEPFSAELLSAMMRLWGDSGIQECFNRSREYQLNDSAKYYLDSLDRIGAADYQPTEQDILRTRVKTTGIVETHFTFKNLHFRLFDVGGQRSERKKWIHCFEDVTAIIFCVALSGYDQVLHEDETTPQNRMHESLMLFDSICNNKFFIDTSIILFLNKKDLFGEKIKKSPLTICFPEYTGPNTYEDAAAYIQAQFESKNRSPNKEIYCHMTCATDTNNIQVVFDAVTDIIIANNLRGCGLY
For the molecule B1, the “reduction of ACh-mediated phosphorylation (pT307/pS309 relative to total receptor) of immunoprecipitated GFP-M2R with co-expressed UNTAGGED Gαo insPQ, 100 μM ACh for 5 min” value in test [3] is 30%.
